This data set in a line: label from the status in PepcDB records.
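Note: failed if final PepcDB status was selected cloned or expressed and not failed if soluble or beyond.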

In the case of “MRLSKEFIGLGIITASLIFGSSLPDIYKGIVILIVAGCLWFFELLPLPVTSLAIPIMAVFLGIFNLKEALTYFAHPIIFLFLGGFMLAQALKNHNLDKFIAYKLLNYGKDFKTTCFLMFLSAYFLSMWISNTSATLILLPIALGLLHKKTGKLRDFLLLGVAYSASIGGIATIIGSPPNAIASSYLDYGFFSWFKVGFPISLLLFLICTLTLYIYFKKWIPKEDIAIQARMELSRNAYKLLVIFVLIASLWIISDYLSEIFNVQYFDSVIAIFAIILLFVFNLVEVNDFKKIDWGTLILFGGALCLGGVIVKSGANTFLSEKLIAILGNLTPIVLLFLVVTITIILTNFISNTGLTGIIVPILFGVSLGIPKEILILAVGMSASCSFILPVGTPPNAIVYSEGVKKEEMMKIGMILSILSAAVITLYSILYL”, the protein production entry is given as “failed”.
To “MRMENQKDLQENYLKVLERVELGSRVSGTVVNIMKDYVLVDIGYKSEGFIKIEEFENVPQVGDRLEAIVVRIGGELGLILSVEKLNSLNFQDKVYEYIQNKKIIKGKVLVELPNGYKIQINENVSGFMPFYLSSKSKDEKLKRGSVVEFYILEASEADGLRLILDRRTLEKERDLAKRIELVSSYNEEDVVDGVVERITEYGAIVKIKNFVTGILHKRNIAFNQVENVEDFVRVGDKLKLKIIKINPQTGKMELSLKALKANPWDSVDVKYKIDSIVKGKVVKILPFGAVIELDSELSGFLHISNFSWIRVVKSPQELIKLGQIVEVKILEIDKENQKISLGIKQINENPWERLTEKYPIGRVVQGVVTNITKTGAFVNIEEGIDAYVSKFDISWLEEIDPEEYFKIGDLVNGKVLEVDKRKRNVRLGIKQLEESPWEDFSKSYKKGDTIEVEIVEKKSKGFQVRVYNKIMGFISKIQLGDTKESSLETFEKLNVGDKLKVVITSIDSKDKSVLLSYREYENQRSREEISSYLFKGNDEESYKPFENLLKRDELEHHHHHH” belongs “not failed”; to “MRMIGRRRALEHRITLIAVIVILQLAATLFFLVDVTGDLRADGSGVHIAAEAGAAIALLVGVVFGAAQVRWLVLRARQDEAAVAAAKGALADLARLRFSDWKLTAAEADVALFALKGCDVAEIAALRGAAAGTVRAQLARVYAKAGVNSQSALMALFLEELVEAGEG”, “failed”.
The entry for “MRMKHLTVAALTLLLSVSCSQRQEDYPFRNPDLPIDERIDDLLKRLTAEEKIGQMMNTTPAIERLGIPEYDWWNEALHGVARAGKATVFPQAIAMAATFDDDALYETFTMVSDEARAKYHQYQKNKEYDRYKGLTFWTPNINIFRDPRWGRGMETYGEDPYLTERMGVAVVKGLQGDDPKYFKTHACAKHYAVHSGPEWNRHEFDVTVTPRDLWQTYLPAFEALVKKGNVQEVMCAYNRYQGKPCCSSDKLLIDILRNSWGYENIILSDCGAINDFWQRDERTPRHETHPDAESASADAVLNGTDLECGNSYKALIKALKEGKISENDLDVSLRRLLKGRFELGMFDPDERVPYAQIPYNVVESPEHVAQALEMAHKSMVLLKNKNNTLPLSKTIRKIAVVGPNAADSTMLWANYNGFPTHTVTILEGIRNKVPDTEVIYELGCNHAADFVIQDLGNHITSPAGQGFASEFYNNTEFKGEAVYKGLASQLHYTTGGNTQFAPNVNLTNFTARFTGEFEAPETEQVEIKLSGNDAFRLFIGDEKVAEVWENEYGAEKTYMLNAEKGKKYPVKIEYMQRTGSADLNFQIGTRRPVDYAATAAKVKDADVIVYVGGISPRLEGEEMPVNVEGFKKGDRTNIEIPKVQQEMVKALKATGKPVVYVLCTGSALALNWEDANIDAILNAWYGGQEAGTAVADILFGDYNPSGRLPVTFYKSIDQLPDFEDYSMKGRTYRYMTETPLYPFGYGLSYTNFAYRNAKLSSGKITKDQSVTLTFDIANTGKMDGDEVAQIYIKNPNDPEGPIKALKAFLRVHVKAGDSQEVNIELTPEAFHSFNDNTQTMEVRPGKYQILYGGSSDEKALERLELTIE” is “failed”.
On to “MRMKRFLTIVQILLVVIIIIFGYKIVQTYIEDKQERANYEKLQQKFQMLMSKHQEHVRPQFESLEKINKDIVGWIKLSGTSLNYPVLQGKTNHDYLNLDFEREHRRKGSIFMDFRNELKNLNHNTILYGHHVGDNTMFDVLEDYLKQSFYEKHKIIEFDNKYGKYQLQVFSAYKTTTKDNYIRTDFENDQDYQQFLDETKRKSVINSDVNVTVKDKIMTLSTCEDAYSETTKRIVVVAKIIKVS”, for which the protein production result is “not failed”.
To “MRMQRQGCVQAQIAGQSGMLTYWDNRRDMPMIASHRWTALFVLVILMPLPAFAGTPEGGYRQPPEPLLSVMRAPLNPSPRPDPTGRTLLLVQRTQYPPIARVAEPYLKLAGVRVEPRTHSRHDMSNGYGIRSCLEGFSLVDIASGKQTAVSLPAGACPALPVWSPDGRRFAFNNTAADHVELWVGDVATGQVRKIDGVQLNPVLGGEIQWLGGSSTLLLKTVPQDLGPAPRKAAVPPGPEVKETIQGKGESSTYEARDTLSSPQDEALFTYYATAQLLTVDAATGSQRKLGTPAVYSNVDGAPDGRHVLVERLKPPYSYVTTYARFAHDVAVLDLETGNERVLANLPVADRVPVQGVPTGPRAYAWRANQPATLVWAEALDGGDWKTSVPARDTLMTLAAPFTAKPRALARVQQRYAGLSWFAEGGQALLDEYDENRHWRRTTLVDADRPGAGERVLFDLSTDDLYADPGLPEMRVLANGQAVLREAQGALFLSGQGASPAGDRPFLDRYTLATGKSQRLFRSDAHVDEVFFGFAGDETSRLLTWHQSLTDPPNVYVRTLGEPLPAPAAGEAAFASTATPVTHFADPTPLVRQIKKRLVSYKRKDGVDLSFTLYTPPGYKEGTRVPAILYAYPLDYADPSKAGQVSGASERDFTRLNYYQLLLLAGYAIIDDAAFPIVGDPKTAYDTYLQQLVDDATAAVDKAVELGVVDRQRIGVTGHSHGALMTANLLAHTDLFRAGAATSGSYNKTLTPFGFQSERRSFWKAPDVYAQASAFFHADKINEPLLIVHGMDDANPGTETTQAPRLFQAIRGNGGTARLVLLPFEPHWYSARESNEDLVAEMLEWFDRYVKNAPPRDAQHANDVR” belongs “failed”; to “MRMVAHRFLRPQEAHMQVLVRDNNVDQALRILKKKLQREGVFREMRLREAFEKPSIKKAREKAEAIGRQRKLARKQMQREGLLPTKPRKDKLEHHHHHH”, “failed”.
For “MRNKDLEPHSFELWLNAAKTNLDKYEMALIITATLGLRRGEVMGLRNESIKISHDQINDADVAQISIDMQRNTNELNGGPLKTKSSYRTIWAFGKTVDHLKYAMITADNLRQRNNIQAEKHWLWLNNDGNPLHPTHLNRLMRRVSNRSGVEVYPHLLRHYFATQAIAANKPQIDVMHYLGHKNLQMTADYTRSTKAASLNVFNSIDKFLLEHHHHHH”, the protein production result is listed as “failed”.
The entry for “MRNKNMSTIYQTSATASAGRNGVVSTEDKLLELNLSYPKEMGGSGTATNPEQLFAVGYAACFSNAILHVAREAKVALKEAPVTATVGIGPNGQGGFALSVALAAHIALEDEQARQLVTVAHQVCPYSNAVRGNIDVQVSVNGLAL” is “not failed”; for “MRNLKELKWSDLKTGIFFLLGLGFAAYLGLVIGKNTSIFTGVTTIKVMTRDVNGLAENNFVSVAGKKIGTVSKLDFSTQNDSLFVVAELKLQNEYANLVTKDSKASIRSLGVLGDKYVDIKAGTGKPVKEGDFIQLVPEDGLSALTDNAKSTIEKLNTLLDKLNNGDGPAGRLISDKQMGEDLQKTVMNLRKSSDELTRVSAELHNGKGLLPKLINDKSLADNTEQTIVNLKNAAAETETLMKQLNEGKGTLGKLNSDPALYNNLSKTLISLDTLLIDLKKRPNRYVRFTLF” it is “failed”.
